Assay results as given in the domain aggregation screens of Martell et al. (2025).

Test: soluble fraction after stress (log2 fold change); higher = more stays soluble; pooled small domains, quantitative proteomics
Conditions: stress: pH 4
In short: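 Aggregation propensity is estimated from the fold change in each domain's soluble amount after acid stress. Pooled small-domain libraries were stressed at pH 4, and higher log2 values mean more stayed soluble.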
With “HMTAGTGIAYSEFRSKVQEGQVKDVAIAPDRITGTLSSGQKFSTVPVNDPGLPKMLDDFNVKYSGQA” the “soluble fraction (log2)” value was 0.22. With “HMVAAITDLPVKSVNGRQMYYYVVRKGETVYSLTHTLGITHDRLVKANRSVEDGLRAGQILYFPVSEFG” the “soluble fraction (log2)” value was -0.00401. For “HMTFNLDVDGDDQVTALGDGLMIIRKLFGATFAGDALTNKAISPDATRTTDEIHAYIEKGITSGVLD”, the “soluble fraction (log2)” value was -0.288. With “HMGTHVVQEGEYLDLIIEKTIPGSPIRKDLLRKAFVKLNPSAFGGRGNPNYIFARKKLKVPSVEDLKAVIF” the “soluble fraction (log2)” value was -0.36. With “HMASPKEALWRSLAEEPDTWWDNRERKSQPGANPRSPDFKHKESGEALWIESRDTPTWVLETL” the “soluble fraction (log2)” value was -1.5. With “HMGSGKGAAHTILGISADASDDEIKAAWRKLVQENHPDKLVSQGLPDEFVQAATDRLRLINTAYQSMLNRP” the “soluble fraction (log2)” value was -0.328. With “HMATPRLAIVPQSAAGRRLDAVLAELFPEYSRSRLSAWIKTGDVMVDGAAPRGRDPVRGGEEITLTAVQ” the “soluble fraction (log2)” value was 0.113. For “HMSESAGKAFDLLFYLAKAGETVSLARLSRETGMNKATALRYLNVLESKGVVERSKLGWTLGLSLFELGSK”, the “soluble fraction (log2)” value was -0.508. With “HMSGEVLTAVVPETASGERLDKVLPQIFPPYSRSQLQTWLKEGRVTLDREIPAARLAVIGGETLRLEVPSL” the “soluble fraction (log2)” value was -0.0494. In the case of “HMPLDKDTTLDEIYRRFNMEHPADYKGHSLSMGDIVVFRQDGKQTAYYVDEGADYRQVPEFFVK”, the “soluble fraction (log2)” value was -0.173. With “HMKLTINIDAAHDGKTIKQLFAEKGYSLELIKKFKYDGAIEVNGERKTVRWVLREGDLLVLEAN” the “soluble fraction (log2)” value was -0.683. With “HMTVKVPDLRGKTLAEMQRILDDAGLKYEINDSTFSRTAIPGTVREVIPAPGSEVKLGRILFIAINGF” the “soluble fraction (log2)” value was 0.00881. With “HMEFNQAVQDVNELSMQYAKSDVLWPEFEPKVLAFAKNELSQMPPNQWKFALQTFYNGLKQAA” the “soluble fraction (log2)” value was -0.0767. For “HMSPFYILDEVEAALDDTNLGRLLEIYEELRENSQLLVITHQKRTMEVGDALYGVTMRGDGVSAVISQRLR”, the “soluble fraction (log2)” value was -1.74. With “HMSASTGTVSYKSGATTVWNSPSWHQVKRYVTFGDTVQLLGKTVDQNGATWYKVGDNQWIPELYLNVAG” the “soluble fraction (log2)” value was -0.486. For “HMIKSIRELAEVITLWKNQGKTILIAEHRLSYLMDLADRVLYMKDGQIENDFSMADFRKIPPDEISRMGLR”, the “soluble fraction (log2)” value was -0.532. In the case of “HMLDEPPVSQTLTTYDREHMALYLRLLDSARDGADWREAVQILFGLDPTRDPLRSRHVHDTHLARARWM”, the “soluble fraction (log2)” value was -0.452. For “HMARGRETILLVEDEPAVRGLVHATLRLHGYTVLEARHGIEALLTSTKFVGPIHLLLTDVVMPQMS”, the “soluble fraction (log2)” value was 0.265. For “HMGQPGNWTSYVFKNSDTEPAKPTSSGPIPSGWNDAPTGVGIWWMSKATIDASTGKAGSWSTPIRVTGED”, the “soluble fraction (log2)” value was 0.0155. With “HMKESRLFRILYYLLQHKKATAPELAEEFEVSVRTIYRDIDYISSAGVPIYATQGKDGGIAILDSF” the “soluble fraction (log2)” value was -0.81. With “HMRSQLALVVRTGESQRLDNFLVNNLAWKSRNRLQGLIREGLVTVNGEKTKASRRVHLDDLVEIHL” the “soluble fraction (log2)” value was -0.0501. With “HMGRLPMNIVRAIVEHLDRHASYSEINRATGASKGFISKVAAAVEAASLTPEKFLLLNDEDIQNRITPGR” the “soluble fraction (log2)” value was -0.133. With “HMHYELTPDAEKQLSALGLTAELVERILEEANDRRPIPGTNRTVYSLHGYSVEFSNTNHKIVSVRKG” the “soluble fraction (log2)” value was 0.343. In the case of “HMEILPAYRDIKKEALLGNINAEFKYVNLLLEHNYIEQAFNIIEDMKTRVDDNPEFEELKSRVADAYLMY”, the “soluble fraction (log2)” value was -1.48. For “HMAFKDDDVQKAYDRYMDRYGELSVLYSDNGLKVDDDLFYKNNIPPNGKFTKEFFDELYELVNMEFINNY”, the “soluble fraction (log2)” value was -0.538. In the case of “HMSTDNINYKNILIASLLIHAAKIDENYTENEKNIIKKALIELDEIDSKKADEIMILAEKKE”, the “soluble fraction (log2)” value was -0.271. For “HMDEIDYSKYSITTSNRIINIDGVQSKVELFDVSGRSIQSTMVTGKFSSRPLNAGFYIIHVDGYSVKVSV”, the “soluble fraction (log2)” value was -1.19. In the case of “HMFTRFTVAQDGWTIGGFTAKEMAVSTAKQHAVDTGKPVTVVAHVAGGGSREAIFNSDGTNDKIWN”, the “soluble fraction (log2)” value was 0.157. In the case of “HMSFVDFYGLFTTELQRLAELPVTADELIKNTGLHKSQLTDWLKRAEEDGVVKKLNRPVRYQVEKK”, the “soluble fraction (log2)” value was -0.989. With “HMITLYIHNLEEVGKRLDHYLVSNLDDHSRSQIQSWIRSGSILVNDRSVKTGYSLELNDQILINPPK” the “soluble fraction (log2)” value was -0.15. With “HMFEYDEEEYEKLGPNADLTIKSMTDWGQSLVRKGVWSESDFEEFKIMGGTAQGLRALQKVRSYY” the “soluble fraction (log2)” value was -1.25. For “HMVAQQINDFRSERDASTGTLKRPLFDTLRDVISSRAQAYVSATGKPVTVEDLDRIYQAVEAEAKQAL”, the “soluble fraction (log2)” value was -0.349. With “HMENVALYIRLKSMASVYDDVHGYNIEWIKSMIGLSIDIEKLRTVLEDVSWITKVEEDVYSFSKNAKPFE” the “soluble fraction (log2)” value was -2.32. For “HMYLLPVTSTELKGNYPNPFNPETTISFDLKDAERVNLSIYNLKGQLVRTLVNSDLPIGRHRLIWDGNDS”, the “soluble fraction (log2)” value was -0.609. With “HMRSIVETLTDRELEIFQLIGNGFSTGEIARRLNLSPHTIETHRKNIKDKLGLSSGSELNKQAIQWVLSS” the “soluble fraction (log2)” value was -1.15. For “HMTELNNTQRAAVLLLALDEDSAAEVFKHLSAREVQEVSQEMAKLGNISHDQMRQVLDDFYDESEQF”, the “soluble fraction (log2)” value was -1.01. With “HMESVTETFLTNLINRYIADKAGYIISYPSEYRIEVLYHGGQVLDYENLRKSINTYIPAHIGYKLVTI” the “soluble fraction (log2)” value was -0.158. For “HMEDSSSILNRMRKLIALLNRASEAYYKENKEIISNFEYDRLYDELLGLESRSNTVLSGSPTYKV”, the “soluble fraction (log2)” value was -1.21. In the case of “HMTEALEFTVEDLRMAGLVNSSFSRRRRELFSEKLGIGYGNGKSLLKKLNGYGITREEFNGAIQSLSD”, the “soluble fraction (log2)” value was -1.3. In the case of “HMLPTVSITGHIFIRSGSPLNRIFVGEKIYHVGDHIDRDWVIESIGIDTLTIRSGTLSTQLPL”, the “soluble fraction (log2)” value was 0.034. In the case of “HMKQPVPDEIYFKRLANATEALGRYPRASERKKFGLNMSKRRYPTLTDFINKAIELGYVEDFR”, the “soluble fraction (log2)” value was 0.22. In the case of “HMQVSEQVQRLLDALENDTLTTKELMDRLGLKHRPTFRKNYLLPSMKLGLVEMTIPDKPNSSRQKYRRRQ”, the “soluble fraction (log2)” value was 0.00707. For “HMGLAWTVEGRTVLLGRTADRIELYNVGGGLVALARESDRISAPGVGLYVVRVVSDGQSVSQKIWIT”, the “soluble fraction (log2)” value was -0.325. With “HMFGNTGETSGTGVAFTRSPVDGENKIFGEFLVNAQGEDVVAGIRTPQPISEMEQAFPEVYSKFESVAEIL” the “soluble fraction (log2)” value was -0.305. With “HMRKNVAGITPNVYGMGLKDAVYLLENAGYRVKVNGRGNVVRQSINSGTRIIKGQLIILDLD” the “soluble fraction (log2)” value was 0.0848. In the case of “HMTGIKISVDRLQIGNYVKLPLNWKDHPFLFSSFAIKSQEEIDLIRRLGLKQVIMFPDKSSMPPKPV”, the “soluble fraction (log2)” value was -0.0359. In the case of “HMVPTVSVDRDDTLRFEGRPVDWDVLKRELGAVAGIDELKIYADAKVSALTVSKIMKSASEAGVLQFILVT”, the “soluble fraction (log2)” value was -0.334. For “HMASALDVALNDFAEMRKKMRKPLTDRALALTLSELEKLAPGNDEKKIAILNQSIQRGWQGVFPLK”, the “soluble fraction (log2)” value was 0.0901. For “HMAETLRLVGATNLNTLARARHPDDLAARNEFRRAIAQANPALFAGKSKVGSVSLPAGTVLALPPEV”, the “soluble fraction (log2)” value was ≥ 0.43. With “HMNKETYIDALERKLWDRLDPDQLRDIISYYKDYFAMEAAKGISEEETIRKLGDPALLAKSILAAE” the “soluble fraction (log2)” value was -0.145. With “HMTVVIKVQASQLESWKSSAGTEIKAKLIAVEDEKTYLFVTETGKTIRATAAQLDESSVSRARKLAGL” the “soluble fraction (log2)” value was -0.514. In the case of “HMSDPHEELMSRIARDLSIPLTRVVAEMNTIISKEFGGHIRPEGAVVILAKRSGVEFSDLLPALRENILK”, the “soluble fraction (log2)” value was -0.852. In the case of “HMEREKTYLMPDLIGRKAERVVPRLQASGFKVEDIRHVYYPGLEKGVIVRQSPPGGYPIQKRNLINLEVS”, the “soluble fraction (log2)” value was 0.0984. With “HMDPSHGESRENLDIMRIIDETHLEYPSWGYRKMTDHLRANHGYTINRKRVRRLMRLMDIIALFPG” the “soluble fraction (log2)” value was -0.908. With “HMSVFTDIYHQADHETKLMLIHEIKIVGDEKEFRLLKSIIDSTSNDLSKEANDALNAIKIRLALSK” the “soluble fraction (log2)” value was -1.25. With “HMNLTEIGQRIRDRREELGLSQDRLAKLGGLPRVTINQLETGSIGDLGVSKLLNLLDLLGLTLDA” the “soluble fraction (log2)” value was -0.614. With “HMVDQVDKDRFLEALTQLGGSAGNVRLRETLQWEEEVYVIIKDALVKSGTILTGRGRGGSVLLASA” the “soluble fraction (log2)” value was -0.909. For “HMLLTASNYFKETKGINFSELPEALQKGHSFVIKSTENGTNWNAYSTSQNIQRVIDAYFSKLDEYLEKNQ”, the “soluble fraction (log2)” value was -0.202. In the case of “HMSDDVELLGRLSDREVSVLQYLSQGYSNKQISEQMFISNKTVSTYKARLLLKLNAGSLVDLIEFAKRNTL”, the “soluble fraction (log2)” value was -0.961. For “HMVTDVDYSTFLSQVEEGKVESVTIEDGEILFKGKDENGEARWYITGEMNDPNLVERLKDKVPSFNAPA”, the “soluble fraction (log2)” value was -0.128. With “HMVDPELFIWVESSKEPVYHLAYKIELFVHSTDPQDDVPVHRWQVFVDAHNGNILDKFDEVR” the “soluble fraction (log2)” value was -1.65. For “HMTADIRFLNSRKFYIYKVEKGETLFSISQKFNIPQEEIIQFNKDINQQGLKAKTKLWVPAYSWL”, the “soluble fraction (log2)” value was -0.43. For “HMYEENFSKIKNDISTIFKRHKISFTNNFISHLSSVFNTDSLTNKMELEKLDSFLINNKKVTENELLKFII”, the “soluble fraction (log2)” value was 0.0436. With “HMYEINEIIRERRLKKGLTQAQVAKYLGVSAPAVNKWEKGTTYPDLVLLPALARLLDTDLTTLLSF” the “soluble fraction (log2)” value was -1.02. In the case of “HMLDVNLIFSRPGFSLSAAFTLHAGGITVLRGDSGSGKTTLADLLSGAIAPQKGRILSDGDIWFDAASGIN”, the “soluble fraction (log2)” value was -0.163. For “HMKETLSINSTDFEVRRSSRRKRISVGFDTGTETFFIAAPTKLAGTDILRILGPQISRLMDRLT”, the “soluble fraction (log2)” value was -0.808. With “HMFVTFFHELKSAGVPVSLREYLTLMEAMDRDLASRRVEEFYYLARTALVKDERNLDKFDRVFGHVFKGL” the “soluble fraction (log2)” value was -1.69. For “HMYLHSEFSPVTGQELHMKYDDSSTEEDPVMLVEGKDIQGNDFVKKIHLNDVDPENATPAEMTALRVHL”, the “soluble fraction (log2)” value was -0.507. For “HMTSKVTVLAVNGRITVSGKEQDETVSVYDTGGRLLYQGESDVINVPRKAMYIVTVSRKSYKVIV”, the “soluble fraction (log2)” value was 0.00912. With “HMTTQERVSYSAFINDVETGRVAKVVISGYTIEGTRTNNSSFVTERPYGVDSNLSEVLMQNSVSIEGKA” the “soluble fraction (log2)” value was -0.523. For “HMKTGAKLKNLRKMKKLSQEEVAKVLNLSYSTLSRWENDTRIPTYEDLFKLGQFYGVSVDYLSDPN”, the “soluble fraction (log2)” value was -0.853. In the case of “HMVLVGERRQKILEVVSSGKAVTVEELSRILHVSPSTVRRDLRFLESRGLLYRTHGGAMPPV”, the “soluble fraction (log2)” value was -0.0726. With “HMANYYEILGVKHDATEAEIKAAYKQAAKSAHPDAGGSNEKMQEVNAAWEVLGNAQKRAEYDARMA” the “soluble fraction (log2)” value was 0.349. For “HMINSFDYLQAIFTELMKSQSKMTNQDAAKRLFMQGKVAVSNRDREGLRMVLAQLVTLLPKEELGGLSTVS”, the “soluble fraction (log2)” value was ≥ 0.43. For “HMEYLIENYGSVINQARMKKGMTQEQLSSKTGVSQAYIRSIESQNMKPTDAVARKIEFELGIKLFE”, the “soluble fraction (log2)” value was 0.147.
